# Source: US20140315822A1 (INSTITUT PASTEUR, published 2014)
# B1: PDZ domain of the human MAST2 protein (other)
# chain: MRPPIIIHRAGKKYGFTLRAIRVYMGDSDVYTVHHMVWHVEDGGPASEAGLRQGDLITHVNGEPVHGLVHTEVVELILKSGNKVAISTTPLEN
# Assays:
# [1] = molecular target: 453
# [2] = molecular target: 439
# [3] = molecular target: 461
# [4] = molecular target: 443
# [5] = molecular target: 460
# [6] = molecular target: 455
binder,measurement,setting,value
B1,Kd,[1],238 nM
same,Kd,[2],210 nM
same,Kd,[3],126 nM
same,Kd,[4],400 nM
same,Kd,[5],188 nM
same,Kd,[6],130 nM
